Publication PMC6192996, “Loss of a conserved salt bridge in bacterial glycosyl hydrolase BgIM-G1 improves substrate binding in temperate environments” (Communications Biology, 2018)

What was measured:
[1] = system: C[C@H]1O[C@@H](Oc2ccc([N+](=O)[O-])cc2)[C@H](O)[C@@H](O)[C@H]1O; assay: purified protein; details: 100 mM sodium citrate pH 6.0, 45 °C
[2] = system: O=[N+]([O-])c1ccc(O[C@@H]2O[C@H](CO)[C@@H](O)[C@H](O)[C@H]2O)cc1; assay: purified protein; details: 100 mM sodium citrate pH 6.0, 45 °C
BglM-G1 = target: T1, BglM-G1 (marine metagenome, UniProt Z9E642Q5N2); assay: X-ray crystal structure, […] Å, soaked crystals; format: binding; details: 6 mM ligand soak 24 h, pH 7.5, 18 °C; active site
T1 construct: codon-optimised synthetic gene in pOE, E. coli BL21(DE3); N-terminal MHHHHHHENLYFQGH tag TEV-cleaved, scar GH; theoretical mass 49,874 Da; monomer in solution
T1 sequence (Z9E642Q5N2 16-455 H90R): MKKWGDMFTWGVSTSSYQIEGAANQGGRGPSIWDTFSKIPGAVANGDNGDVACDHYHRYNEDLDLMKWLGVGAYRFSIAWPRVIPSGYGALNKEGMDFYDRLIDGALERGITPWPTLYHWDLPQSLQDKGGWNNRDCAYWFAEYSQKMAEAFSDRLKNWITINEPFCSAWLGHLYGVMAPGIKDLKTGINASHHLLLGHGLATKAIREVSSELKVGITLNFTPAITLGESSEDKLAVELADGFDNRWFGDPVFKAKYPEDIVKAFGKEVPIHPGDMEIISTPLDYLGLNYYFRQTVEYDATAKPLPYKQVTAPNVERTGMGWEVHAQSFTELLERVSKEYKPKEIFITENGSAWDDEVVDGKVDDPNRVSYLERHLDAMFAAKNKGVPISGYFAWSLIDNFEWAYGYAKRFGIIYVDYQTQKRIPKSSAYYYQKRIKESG

## BglM-G1 (marine metagenome)
[1]
  Km: 88 ± 38 µM
  kcat: 41.4 ± 3 s⁻¹
  kcat/Km: 519000 ± 146000 M⁻¹ s⁻¹
[2]
  Km: 135 ± 16 µM
  kcat: 55.6 ± 1.5 s⁻¹
  kcat/Km: 417000 ± 44000 M⁻¹ s⁻¹

## OC[C@H]1NC[C@H](O)[C@@H](O)[C@@H]1O [1-deoxynojirimycin]
BglM-G1
  X-ray crystal structure, 1.55 Å, soaked crystals: we co-crystallized the H75R variant with the glucosidase inhibitor 1-deoxynojirimycin
